According to patent US20210380703A1 (RIGEL PHARMACEUTICALS, published 2021):
Where a chain is given by its changes, count along the chain named. Each block holds one binder with its values, some of them ahead of it.

How the values were obtained:
[1] = target: ACVR2A on primary human myotubes (human, UniProt P27037 20-513); test: cell-based or functional assay
[2] = target: T1, biotinylated goat anti-human kappa light chain; test: ELISA, positive control; also: test concentration or dose not given here
T1 construct: Positive control of the ELISA
In short: (§1)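 Monoclonal antibodies were first applied to human or mouse ACVR2A, alongside biotinylated goat anti-human kappa light chain (positive control) and human Fc (negative control); binding was then determined by ELISA.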

mouse ACVR2A = mouse ACVR2A (mouse, UniProt P27038 20-135, limits assumed); test: ELISA
In short: as §1

human ACVR2A = target: T2, human ACVR2A (human, UniProt P27037 20-135, limits assumed); test: ELISA
T2 construct: also called activin receptor, type II A
In short: as §1
For optical density in this document: test concentration or dose not given here.

T2 sequence (P27037 20-135 limits assumed): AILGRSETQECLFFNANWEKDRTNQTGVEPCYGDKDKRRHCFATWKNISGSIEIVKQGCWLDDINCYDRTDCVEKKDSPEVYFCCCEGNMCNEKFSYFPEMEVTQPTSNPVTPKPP
mouse ACVR2A, sequence (P27038 20-135 limits assumed): as the sequence (P27037 20-135 limits assumed) above, with K20R, V73I counted along it
ACVR2A on primary human myotubes, sequence (P27037 20-513): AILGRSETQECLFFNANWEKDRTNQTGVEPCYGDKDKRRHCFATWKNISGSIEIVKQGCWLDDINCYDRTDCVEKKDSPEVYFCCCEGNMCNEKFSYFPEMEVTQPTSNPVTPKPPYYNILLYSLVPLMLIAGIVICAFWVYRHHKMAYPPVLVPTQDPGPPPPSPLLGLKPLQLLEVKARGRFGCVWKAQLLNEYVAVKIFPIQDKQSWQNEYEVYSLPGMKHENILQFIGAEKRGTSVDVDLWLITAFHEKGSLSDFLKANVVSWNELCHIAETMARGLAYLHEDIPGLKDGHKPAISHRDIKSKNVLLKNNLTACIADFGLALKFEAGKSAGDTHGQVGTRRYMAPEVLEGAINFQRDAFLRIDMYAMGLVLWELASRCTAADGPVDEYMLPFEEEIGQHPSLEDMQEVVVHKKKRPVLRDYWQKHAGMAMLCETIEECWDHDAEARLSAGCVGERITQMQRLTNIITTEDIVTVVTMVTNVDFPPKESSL

B3: 374_C03 (antibody, V domains shown)
VH: EVQLLESGGGLVQPGGSLRLSCAASGFTFDSYSMNWVRQAPGKGLEWVSGINYNSGYTSYADSVKGRFTISRDNSKNTLYLQMNSLRAEDTAVYYCARSANWHDTALDYWGQGTLVTVSS
VL: DIQMTQSPSSLSASVGDRVTITCRASQSILTYLNWYQQKPGKAPKLLIYAATSRASGVPSRFSGSGSGTDFTLTISSLQPEDFATYYCQQSYDSPLTFGGGTKVEIK
- Phospho-SMAD3 Human Skeletal Muscle GDF8 [1]: 0.0094

B4: 376_G01 (antibody, V domains shown)
VH: B3 VH with S31D, T58K, N101T, A106H
VL: B3 VL with T31S, L33V, L47V, A51V, D93E, S94L
notes: VH and VL only
- optical density [2]: 3.18 OD
- optical density (mouse ACVR2A): 3.66 OD
- optical density (human ACVR2A): 3.34 OD

B5: 375_G12 (antibody, V domains shown)
VH: B3 VH with S33G, N35H, G50S, S55G, N101T, A106H
VL: B3 VL with L30V, T31S, L33V, A55H, S94T
notes: VH and VL only
- optical density [2]: 3.3 OD
- optical density (mouse ACVR2A): 3.29 OD
- optical density (human ACVR2A): 3.36 OD

B7: 374_E03 (antibody, V domains shown)
VH: B3 VH with D30S, G50N, T58K, S59G, N101T, A106H
VL: B3 VL with L33V, L47V, R54L, S94T
notes: VH and VL only
- optical density [2]: 3.13 OD
- optical density (mouse ACVR2A): 3.79 OD
- optical density (human ACVR2A): 3.72 OD

B8: 371_F12 (antibody, V domains shown)
VH: B3 VH with G50N, S55G, T58K, N101T, A106H
VL: B3 VL with L30I, T31S, Y92N, D93N, S94L
notes: VH and VL only
- optical density [2]: 3.62 OD
- optical density (mouse ACVR2A): 2.3 OD
- optical density (human ACVR2A): 2.47 OD

B10: 373_F02 (antibody, V domains shown)
VH: B3 VH with T58K, N101T, A106H
VL: B3 VL with S94T
notes: VH and VL only
- optical density [2]: 3.15 OD
- optical density (mouse ACVR2A): 3.6 OD
- optical density (human ACVR2A): 3.62 OD

B13: 374_F09 (antibody, V domains shown)
VH: B3 VH with D30S, S33G, G50S, N101T, A106H
VL: B3 VL with L30S, T31S, L33V, D93S, S94T
notes: VH and VL only
- optical density [2]: 3.14 OD
- optical density (mouse ACVR2A): 3.62 OD
- optical density (human ACVR2A): 3.53 OD

B14: 375_G10 (antibody, V domains shown)
VH: B3 VH with D30S, S33G, G50S, S55G, T58K, N101T, A106H
VL: B3 VL with L30V, L47V, A55H, S94T
notes: VH and VL only
- optical density [2]: 3.3 OD
- optical density (mouse ACVR2A): 3.64 OD
- optical density (human ACVR2A): 3.48 OD

B15: 373_D02 (antibody, V domains shown)
VH: B3 VH with D30S, G50N, T58K, S59G, N101T, A106H
VL: B3 VL with T31S, R54L, S94L
notes: VH and VL only
- optical density [2]: 3.19 OD
- optical density (mouse ACVR2A): 3.65 OD
- optical density (human ACVR2A): 3.73 OD

B16: 373_D09 (antibody, V domains shown)
VH: B3 VH with N101T, A106H
VL: B3 VL with L47V, A55H, D93E, S94N
notes: VH and VL only
- optical density [2]: 3.04 OD
- optical density (mouse ACVR2A): 3.5 OD
- optical density (human ACVR2A): 3.46 OD

B17: 365_E05 (antibody, V domains shown)
VH: B3 VH with D30S, S33G, N35H, S49A, S55G
VL: B3 VL with L30V, T31S, L33V, R54L, S94N
- Phospho-SMAD3 Human Skeletal Muscle GDF8 [1]: 0.244

B18: 374_D11 (antibody, V domains shown)
VH: B3 VH with S33G, G50N, S59G, N101T, A106H
VL: B3 VL with D93E, S94T
notes: VH and VL only
- optical density [2]: 2.9 OD
- optical density (mouse ACVR2A): 3.58 OD
- optical density (human ACVR2A): 3.64 OD

B19: 376_C07 (antibody, V domains shown)
VH: B3 VH with D30S, T58K, S59G, N101T, A106H
VL: B3 VL with T31S, L33V, A55H, S94L
notes: VH and VL only
- optical density [2]: 3.42 OD
- optical density (mouse ACVR2A): 3.71 OD
- optical density (human ACVR2A): 3.7 OD

B21: 374_G01 (antibody, V domains shown)
VH: B3 VH with G50N, N101T, A106H
VL: B3 VL with L33V, A51T, A55H, D93N, S94L
notes: VH and VL only
- optical density [2]: 2.92 OD
- optical density (mouse ACVR2A): 3.6 OD
- optical density (human ACVR2A): 3.34 OD

B22: 368_D10 (antibody, V domains shown)
VH: B3 VH with S33G, S49A, N101T
VL: B3 VL with T31S, L47V
- Phospho-SMAD3 Human Skeletal Muscle GDF8 [1]: 0.0601

B23: 374_G02 (antibody, V domains shown)
VH: B3 VH with N101T, A106H
VL: B3 VL with T52S, R54L, A55Q, S94T
notes: VH and VL only
- optical density [2]: 3.17 OD
- optical density (mouse ACVR2A): 3.54 OD
- optical density (human ACVR2A): 3.52 OD

B24: 374_E06 (antibody, V domains shown)
VH: B3 VH with G50S, T58K, S59G, N101T, A106H
VL: B3 VL with T31S, S94L
notes: VH and VL only
- optical density [2]: 3.25 OD
- optical density (mouse ACVR2A): 3.75 OD
- optical density (human ACVR2A): 3.84 OD

B26: 373_E08 (antibody, V domains shown)
VH: B3 VH with S33G, N101T, A106H
VL: B3 VL with L30V, T31S, L33V, A51V, D93E
notes: VH and VL only
- optical density [2]: 3.2 OD
- optical density (mouse ACVR2A): 3.23 OD
- optical density (human ACVR2A): 2.97 OD

B27: 365_E07 (antibody, V domains shown)
VH: B3 VH with S33G, N35H, R98K, A106H
VL: B3 VL with T31S, S94N
- Phospho-SMAD3 Human Skeletal Muscle GDF8 [1]: 0.518

B28: 376_H08 (antibody, V domains shown)
VH: B3 VH with S33G, G50N, S55G, T58K, S59G, N101T, A106H
VL: B3 VL with A55H, Y92D, D93S, S94L
notes: VH and VL only
- optical density [2]: 3.53 OD
- optical density (mouse ACVR2A): 3.28 OD
- optical density (human ACVR2A): 3.31 OD

B30: 373_H12 (antibody, V domains shown)
VH: B3 VH with D30S, S31D, T58K, S59G, N101T, A106H
VL: B3 VL with D93N
notes: VH and VL only
- optical density [2]: 3 OD
- optical density (mouse ACVR2A): 2.98 OD
- optical density (human ACVR2A): 3.06 OD

B33: 375_F01 (antibody, V domains shown)
VH: B3 VH with D30S, G50S, S59G, N101T, A106H
VL: B3 VL with L30V, T31S, L47V, S94N
notes: VH and VL only
- optical density [2]: 2.96 OD
- optical density (mouse ACVR2A): 3.46 OD
- optical density (human ACVR2A): 3.16 OD

B36: 374_E04 (antibody, V domains shown)
VH: B3 VH with D30S, T58K, N101T, A106H
VL: B3 VL with T31S, A51V, D93N, S94N
notes: VH and VL only
- optical density [2]: 3.19 OD
- optical density (mouse ACVR2A): 3.72 OD
- optical density (human ACVR2A): 3.74 OD

Second part, the binder after the results:

- Phospho-SMAD3 Human Skeletal Muscle GDF8 [1]: 0.0081
B1: 374_A05 (antibody, V domains shown)
VH: EVQLLESGGGLVQPGGSLRLSCAASGFTFSDYGMNWVRQAPGKGLEWVANINYNGGYKGYADSVKGRFTISRDNSKNTLYLQMNSLRAEDTAVYYCARGATWHDTHLDYWGQGTLVTVSS
VL: B3 VL with L30V, T31R, L47V, R54L, D93E, S94L

- optical density [2]: 3.36 OD
- optical density (mouse ACVR2A): 2.16 OD
- optical density (human ACVR2A): 2.28 OD
B2: 368_H10 (antibody, V domains shown)
VH: B3 VH with D30S, G50S, T58K, S59G, N101T, A106H
VL: B3 VL with L30V, T31S, L33V, L47V, A51V, R54L, D93E, S94T
notes: VH and VL only

- Phospho-SMAD3 Human Skeletal Muscle GDF8 [1]: 0.812
B6: 368_F03 (antibody, V domains shown)
VH: B3 VH with S49A, S59G, R98K
VL: B3 VL with L30I, T31S, L47V, A55H

- optical density [2]: 3.54 OD
- optical density (mouse ACVR2A): 3.6 OD
- optical density (human ACVR2A): 3.65 OD
B9: 376_G11 (antibody, V domains shown)
VH: B3 VH with D30S, T58K, N101T, A106H
VL: B3 VL with L30V, L33V, L47V, R54L, D93N, S94L
notes: VH and VL only

- optical density [2]: 3.64 OD
- optical density (mouse ACVR2A): 2.7 OD
- optical density (human ACVR2A): 2.32 OD
B11: 372_H03 (antibody, V domains shown)
VH: B1 VH with S30D, D31S, A49S, G59S, G99S
VL: B3 VL with L30I, L33V, R54L, D93N, S94L
notes: VH and VL only

- optical density [2]: 2.98 OD
- optical density (mouse ACVR2A): 3.66 OD
- optical density (human ACVR2A): 3.24 OD
B12: 376_A01 (antibody, V domains shown)
VH: B1 VH with S30D, D31S, A49S, K58T, G99S
VL: B3 VL with L30V, T31S, D93S, S94T
notes: VH and VL only

- optical density [2]: 3.48 OD
- optical density (mouse ACVR2A): 3.76 OD
- optical density (human ACVR2A): 3.74 OD
B20: 376_E09 (antibody, V domains shown)
VH: B3 VH with T58K, N101T, A106H
VL: B3 VL with A55H, S94T
notes: VH and VL only

- optical density [2]: 3.11 OD
- optical density (mouse ACVR2A): 3.59 OD
- optical density (human ACVR2A): 3.52 OD
B25: 373_A07 (antibody, V domains shown)
VH: B1 VH with D31S, G33S, A49S, K58T, G99S
VL: B3 VL with L33V, Y92D, D93N, S94L
notes: VH and VL only

- optical density [2]: 3.14 OD
- optical density (mouse ACVR2A): 3.74 OD
- optical density (human ACVR2A): 3.65 OD
B29: 375_B10 (antibody, V domains shown)
VH: B3 VH with N101T, A106H
VL: B3 VL with T31S, A55H, S94L
notes: VH and VL only

- optical density [2]: 3.15 OD
- optical density (mouse ACVR2A): 3.21 OD
- optical density (human ACVR2A): 3.19 OD
B31: 374_G12 (antibody, V domains shown)
VH: B1 VH with S30D, A49S, N50S, G59S, G99S
VL: B3 VL with L33V, L47V, R54L, D93N
notes: VH and VL only

- optical density [2]: 3.17 OD
- optical density (mouse ACVR2A): 3.66 OD
- optical density (human ACVR2A): 3.69 OD
B32: 374_B11 (antibody, V domains shown)
VH: B3 VH with D30S, T58K, N101T, A106H
VL: B3 VL with L33V, L47V, S94L
notes: VH and VL only

- optical density [2]: 3.22 OD
- optical density (mouse ACVR2A): 3.7 OD
- optical density (human ACVR2A): 3.65 OD
B34: 374_C07 (antibody, V domains shown)
VH: B3 VH with G50N, S55G, N101T, A106H
VL: B3 VL with L30I, T31S, Y92D, D93E, S94L
notes: VH and VL only

- optical density [2]: 2.94 OD
- optical density (mouse ACVR2A): 3.67 OD
- optical density (human ACVR2A): 3.59 OD
B35: 374_A08 (antibody, V domains shown)
VH: B3 VH with G50N, N101T, A106H
VL: B3 VL with L30V, R54L, S94L
notes: VH and VL only
